Assay results published in the supplement of paper PMC5998384.

What was measured:
HeLa Kyoto [1] = assay: thermal stability score vs G1/S (z-score of summed log2 fold changes over temperatures); higher = more thermally stable than in G1/S
HeLa Kyoto [2] = assay: melting temperature (median over replicates), in situ; higher = more thermally stable
HeLa Kyoto [3] = assay: solubility change mitosis vs G1/S (difference of NP-40 vs SDS log2 ratios) (log2 ratio difference); higher = more soluble in mitosis
HeLa Kyoto [4] = assay: solubility in G1/S (NP-40 vs SDS abundance) (log2 ratio); higher = more soluble; details: cell cycle stage: G1/S
[5] = cell cycle stage: early G1 (4.5 h after nocodazole release)
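Wherever melting temperature (median over replicates), in situ is given: HeLa Kyoto cells synchronized by double thymidine or nocodazole block, proteins quantified by TMT10plex mass spectrometry, three independent biological replicates.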
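Wherever solubility change mitosis vs G1/S (difference of NP-40 vs SDS log2 ratios) is given: synchronized HeLa Kyoto cells (double thymidine block for G1/S, nocodazole release for mitosis), protein amounts in NP-40 versus SDS lysates quantified by mass spectrometry, three biological replicates.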
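Wherever solubility in G1/S (NP-40 vs SDS abundance) is given: HeLa Kyoto cells arrested at G1/S by double thymidine block, proteins quantified by TMT10plex mass spectrometry in mild NP-40 versus SDS extracts, three biological replicates.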
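Wherever thermal stability score vs G1/S (z-score of summed log2 fold changes over temperatures) is given: synchronized HeLa Kyoto cells, proteins quantified by TMT10plex mass spectrometry, three biological replicates, mitosis taken 0.5 h after nocodazole release, G1/S directly after double thymidine block.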

Sequence of HERC1 (chain, as listed by the source): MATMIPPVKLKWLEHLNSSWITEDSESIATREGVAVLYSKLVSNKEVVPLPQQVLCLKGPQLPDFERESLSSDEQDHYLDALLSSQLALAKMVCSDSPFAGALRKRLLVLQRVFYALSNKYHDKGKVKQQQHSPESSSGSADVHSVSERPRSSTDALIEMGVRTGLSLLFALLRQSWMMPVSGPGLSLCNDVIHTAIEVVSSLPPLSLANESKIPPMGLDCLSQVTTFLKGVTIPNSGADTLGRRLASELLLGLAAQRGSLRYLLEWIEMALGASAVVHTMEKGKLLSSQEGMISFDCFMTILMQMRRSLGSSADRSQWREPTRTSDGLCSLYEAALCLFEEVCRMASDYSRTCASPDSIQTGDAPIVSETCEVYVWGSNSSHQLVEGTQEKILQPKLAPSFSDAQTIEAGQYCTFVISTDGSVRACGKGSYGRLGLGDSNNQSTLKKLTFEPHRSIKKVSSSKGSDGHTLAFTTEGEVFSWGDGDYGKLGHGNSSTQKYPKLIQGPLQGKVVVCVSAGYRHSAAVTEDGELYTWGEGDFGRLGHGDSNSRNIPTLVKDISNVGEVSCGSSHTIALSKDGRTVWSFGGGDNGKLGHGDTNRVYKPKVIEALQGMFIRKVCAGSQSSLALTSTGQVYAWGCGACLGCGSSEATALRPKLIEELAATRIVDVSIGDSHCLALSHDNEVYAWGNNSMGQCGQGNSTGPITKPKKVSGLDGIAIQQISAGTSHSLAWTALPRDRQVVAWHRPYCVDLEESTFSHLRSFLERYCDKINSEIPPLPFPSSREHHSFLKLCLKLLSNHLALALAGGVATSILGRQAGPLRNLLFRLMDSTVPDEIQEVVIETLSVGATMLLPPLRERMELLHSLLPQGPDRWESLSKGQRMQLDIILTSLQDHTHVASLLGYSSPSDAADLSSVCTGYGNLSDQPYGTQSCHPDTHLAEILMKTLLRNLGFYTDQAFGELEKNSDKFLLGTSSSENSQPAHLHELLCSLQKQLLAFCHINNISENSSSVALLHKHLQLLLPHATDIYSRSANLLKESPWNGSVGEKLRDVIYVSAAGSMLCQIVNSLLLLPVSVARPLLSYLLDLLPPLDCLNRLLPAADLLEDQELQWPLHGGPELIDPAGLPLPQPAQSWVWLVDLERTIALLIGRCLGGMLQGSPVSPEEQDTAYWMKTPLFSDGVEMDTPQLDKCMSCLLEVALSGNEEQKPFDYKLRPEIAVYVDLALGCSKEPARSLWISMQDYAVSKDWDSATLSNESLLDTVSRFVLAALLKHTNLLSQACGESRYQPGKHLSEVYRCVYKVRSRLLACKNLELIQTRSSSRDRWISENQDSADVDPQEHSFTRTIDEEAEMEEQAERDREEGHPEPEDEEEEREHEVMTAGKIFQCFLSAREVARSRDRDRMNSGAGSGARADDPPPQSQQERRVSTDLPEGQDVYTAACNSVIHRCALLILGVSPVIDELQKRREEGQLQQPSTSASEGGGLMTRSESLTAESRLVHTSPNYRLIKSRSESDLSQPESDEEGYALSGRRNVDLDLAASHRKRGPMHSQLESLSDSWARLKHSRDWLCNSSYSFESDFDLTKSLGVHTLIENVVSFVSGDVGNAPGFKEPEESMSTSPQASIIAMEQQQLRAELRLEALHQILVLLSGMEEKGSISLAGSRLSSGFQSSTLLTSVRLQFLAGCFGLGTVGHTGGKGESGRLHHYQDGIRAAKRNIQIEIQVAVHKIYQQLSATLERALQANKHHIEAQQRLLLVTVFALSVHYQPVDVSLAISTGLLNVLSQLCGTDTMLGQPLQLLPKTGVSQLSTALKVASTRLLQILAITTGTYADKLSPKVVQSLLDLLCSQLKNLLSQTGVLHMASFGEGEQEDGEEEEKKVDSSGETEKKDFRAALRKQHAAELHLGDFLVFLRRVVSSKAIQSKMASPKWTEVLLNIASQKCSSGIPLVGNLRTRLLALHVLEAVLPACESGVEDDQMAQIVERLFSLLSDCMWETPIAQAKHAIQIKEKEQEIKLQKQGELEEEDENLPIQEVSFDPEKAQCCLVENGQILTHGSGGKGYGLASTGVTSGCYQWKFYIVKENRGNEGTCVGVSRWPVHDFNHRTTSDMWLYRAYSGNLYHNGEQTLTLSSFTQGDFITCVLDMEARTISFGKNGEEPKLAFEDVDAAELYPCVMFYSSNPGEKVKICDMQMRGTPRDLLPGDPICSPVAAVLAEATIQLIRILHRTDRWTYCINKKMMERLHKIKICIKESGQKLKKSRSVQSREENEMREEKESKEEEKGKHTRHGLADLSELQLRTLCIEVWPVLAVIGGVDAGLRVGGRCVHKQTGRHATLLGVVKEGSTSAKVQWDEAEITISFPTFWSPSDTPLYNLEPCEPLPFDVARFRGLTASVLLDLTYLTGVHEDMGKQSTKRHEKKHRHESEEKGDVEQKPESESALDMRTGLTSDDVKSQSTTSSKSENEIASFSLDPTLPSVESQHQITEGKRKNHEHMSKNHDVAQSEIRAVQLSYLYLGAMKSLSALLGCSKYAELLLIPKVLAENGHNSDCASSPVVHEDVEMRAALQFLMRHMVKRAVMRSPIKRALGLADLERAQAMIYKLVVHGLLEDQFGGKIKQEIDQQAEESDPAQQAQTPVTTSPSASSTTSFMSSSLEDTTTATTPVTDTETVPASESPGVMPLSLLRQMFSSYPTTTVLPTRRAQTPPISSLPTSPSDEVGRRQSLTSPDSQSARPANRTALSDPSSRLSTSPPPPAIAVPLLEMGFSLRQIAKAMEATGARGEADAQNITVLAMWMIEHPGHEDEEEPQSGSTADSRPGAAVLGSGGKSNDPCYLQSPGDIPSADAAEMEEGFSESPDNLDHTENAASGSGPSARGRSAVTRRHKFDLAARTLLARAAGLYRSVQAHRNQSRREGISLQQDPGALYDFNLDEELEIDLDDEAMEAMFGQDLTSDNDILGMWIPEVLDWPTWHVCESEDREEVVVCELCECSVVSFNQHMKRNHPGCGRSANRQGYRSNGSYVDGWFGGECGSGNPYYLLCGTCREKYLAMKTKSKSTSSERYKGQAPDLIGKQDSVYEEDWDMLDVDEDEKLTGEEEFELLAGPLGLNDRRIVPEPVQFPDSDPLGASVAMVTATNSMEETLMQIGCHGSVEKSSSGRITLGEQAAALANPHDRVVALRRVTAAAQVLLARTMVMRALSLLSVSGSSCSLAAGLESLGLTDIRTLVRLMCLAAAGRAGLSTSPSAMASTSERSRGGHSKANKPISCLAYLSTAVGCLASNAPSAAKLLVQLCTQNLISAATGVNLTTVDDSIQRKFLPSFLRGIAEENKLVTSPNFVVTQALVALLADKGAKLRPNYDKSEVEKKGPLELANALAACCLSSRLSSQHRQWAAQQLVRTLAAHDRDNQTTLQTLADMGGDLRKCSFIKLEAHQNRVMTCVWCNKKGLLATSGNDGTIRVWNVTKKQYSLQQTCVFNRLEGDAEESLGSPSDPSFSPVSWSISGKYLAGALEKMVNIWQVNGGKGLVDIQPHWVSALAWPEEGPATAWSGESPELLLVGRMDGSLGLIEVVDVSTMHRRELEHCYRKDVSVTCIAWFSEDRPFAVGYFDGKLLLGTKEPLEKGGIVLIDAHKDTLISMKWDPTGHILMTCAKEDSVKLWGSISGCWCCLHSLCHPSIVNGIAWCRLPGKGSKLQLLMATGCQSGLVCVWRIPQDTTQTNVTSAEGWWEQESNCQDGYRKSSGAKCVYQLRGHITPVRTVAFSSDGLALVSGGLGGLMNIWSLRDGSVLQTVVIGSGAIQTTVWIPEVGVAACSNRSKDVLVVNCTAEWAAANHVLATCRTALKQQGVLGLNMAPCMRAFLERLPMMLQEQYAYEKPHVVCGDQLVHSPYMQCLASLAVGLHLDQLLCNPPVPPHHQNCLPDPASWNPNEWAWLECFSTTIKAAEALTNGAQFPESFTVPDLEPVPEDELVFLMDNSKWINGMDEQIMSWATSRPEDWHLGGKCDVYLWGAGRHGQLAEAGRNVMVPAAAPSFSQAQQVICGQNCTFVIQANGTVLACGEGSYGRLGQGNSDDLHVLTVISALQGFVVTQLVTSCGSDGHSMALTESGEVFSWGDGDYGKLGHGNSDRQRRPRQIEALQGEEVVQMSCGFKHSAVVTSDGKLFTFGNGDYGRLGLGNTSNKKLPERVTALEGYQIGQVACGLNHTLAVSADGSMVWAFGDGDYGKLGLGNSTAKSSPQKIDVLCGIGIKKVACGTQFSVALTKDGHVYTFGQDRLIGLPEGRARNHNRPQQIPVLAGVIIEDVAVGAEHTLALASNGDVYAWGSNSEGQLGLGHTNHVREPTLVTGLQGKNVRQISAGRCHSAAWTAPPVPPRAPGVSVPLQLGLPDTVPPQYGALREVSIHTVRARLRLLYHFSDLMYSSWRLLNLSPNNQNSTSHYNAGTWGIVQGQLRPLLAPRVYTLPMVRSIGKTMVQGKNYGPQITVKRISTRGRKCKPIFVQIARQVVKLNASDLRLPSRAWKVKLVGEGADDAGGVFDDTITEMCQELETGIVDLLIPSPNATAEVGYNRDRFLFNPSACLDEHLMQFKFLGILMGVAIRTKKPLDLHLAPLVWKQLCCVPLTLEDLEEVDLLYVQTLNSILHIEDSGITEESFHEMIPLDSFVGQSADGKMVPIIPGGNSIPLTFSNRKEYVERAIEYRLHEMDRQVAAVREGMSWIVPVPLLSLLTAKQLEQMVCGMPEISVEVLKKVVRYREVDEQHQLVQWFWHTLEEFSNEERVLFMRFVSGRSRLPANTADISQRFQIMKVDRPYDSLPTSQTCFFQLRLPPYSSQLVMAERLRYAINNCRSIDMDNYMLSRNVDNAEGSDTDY

| Substance | thermal stability score (HeLa Kyoto [1]; [5]) | thermal stability score (HeLa Kyoto [1]; cell cycle stage: mitosis) | melting temperature (HeLa Kyoto [2]; cell cycle stage: G1/S) | melting temperature (HeLa Kyoto [2]; cell cycle stage: mitosis) | solubility change mitosis (log2) (HeLa Kyoto [3]) | solubility in G1/S (log2) (HeLa Kyoto [4]) |
| --- | --- | --- | --- | --- | --- | --- |
| MESPGESGAGSPGAPSPSSFTTGHLAREKPAQDPLYDVPNASGGQAGGPQRPGRVVSLRERLLLTRPVWLQLQANAAAALHMLRTEPPGTFLVRKSNTRQCQALCMRLPEASGPSFVSSHYILESPGGVSLEGSELMFPDLVQLICAYCHTRDILLLPLQLPRAIHHAATHKELEAISHLGIEFWSSSLNIKAQRGPAGGPVLPQLKARSPQELDQGTGAALCFFNPLFPGDLGPTKREKFKRSFKVRVSTETSSPLSPPAVPPPPVPVLPGAVPSQTERLPPCQLLRRESSVGYRVPAGSGPSLPPMPSLQEVDCGSPSSSEEEGVPGSRGSPATSPHLGRRRPLLRSMSAAFCSLLAPERQVGRAAAALMQDRHTAAGQLVQDLLTQVRAGPEPQELQGIRQALSRARAMLSAELGPEKLLSPKRLEHVLEKSLHCSVLKPLRPILAARLRRRLAADGSLGRLAEGLRLARAQGPGAFGSHLSLPSPVELEQVRQKLLQLLRTYSPSAQVKRLLQACKLLYMALRTQEGEGAGADEFLPLLSLVLAHCDLPELLLEAEYMSELLEPSLLTGEGGYYLTSLSASLALLSGLGQAHTLPLSPVQELRRSLSLWEQRRLPATHCFQHLLRVAYQDPSSGCTSKTLAVPPEASIATLNQLCATKFRVTQPNTFGLFLYKEQGYHRLPPGALAHRLPTTGYLVYRRAEWPETQGAVTEEEGSGQSEARSRGEEQGCQGDGDAGVKASPRDIREQSETTAEGGQGQAQEGPAQPGEPEAEGSRAAEE [RIN1] | 0.0327 | 1.21 | 48.9 °C | 48.6 °C | -0.062 | 0.282 |
| TP53BP1 | -3.39 | -2.67 | 49.9 °C | 50.8 °C | -0.107 | -0.0663 |
| MSKSLKKLVEESREKNQPEVDMSDRGISNMLDVNGLFTLSHITQLVLSHNKLTMVPPNIAELKNLEVLNFFNNQIEELPTQISSLQKLKHLNLGMNRLNTLPRGFGSLPALEVLDLTYNNLSENSLPGNFFYLTTLRALYLSDNDFEILPPDIGKLTKLQILSLRDNDLISLPKEIGELTQLKELHIQGNRLTVLPPELGNLDLTGQKQVFKAENNPWVTPIADQFQLGVSHVFEYIRSETYKYLYGRHMQANPEPPKKNNDKSKKISRKPLAAKNR [RSU1] | -0.646 | -1.96 | 50.3 °C | 52.9 °C | 0.203 | 0.389 |
| MRPLPGALGVAAAAALWLLLLLLPRTRADEHEHTYQDKEEVVLWMNTVGPYHNRQETYKYFSLPFCVGSKKSISHYHETLGEALQGVELEFSGLDIKFKDDVMPATYCEIDLDKEKRDAFVYAIKNHYWYQMYIDDLPIWGIVGEADENGEDYYLWTYKKLEIGFNGNRIVDVNLTSEGKVKLVPNTKIQMSYSVKWKKSDVKFEDRFDKYLDPSFFQHRIHWFSIFNSFMMVIFLVGLVSMILMRTLRKDYARYSKEEEMDDMDRDLGDEYGWKQVHGDVFRPSSHPLIFSSLIGSGCQIFAVSLIVIIVAMIEDLYTERGSMLSTAIFVYAATSPVNGYFGGSLYARQGGRRWIKQMFIGAFLIPAMVCGTAFFINFIAIYYHASRAIPFGTMVAVCCICFFVILPLNLVGTILGRNLSGQPNFPCRVNAVPRPIPEKKWFMEPAVIVCLGGILPFGSIFIEMYFIFTSFWAYKIYYVYGFMMLVLVILCIVTVCVTIVCTYFLLNAEDYRWQWTSFLSAASTAIYVYMYSFYYYFFKTKMYGLFQTSFYFGYMAVFSTALGIMCGAIGYMGTSAFVRKIYTNVKID [TM9SF3] | 2.92 | 5.14 | 53.5 °C | 53.4 °C | -0.173 | -0.181 |
| MRLLPRLLLLLLLVFPATVLFRGGPRGLLAVAQDLTEDEETVEDSIIEDEDDEAEVEEDEPTDLVEDKEEEDVSGEPEASPSADTTILFVKGEDFPANNIVKFLVGFTNKGTEDFIVESLDASFRYPQDYQFYIQNFTALPLNTVVPPQRQATFEYSFIPAEPMGGRPFGLVINLNYKDLNGNVFQDAVFNQTVTVIEREDGLDGETIFMYMFLAGLGLLVIVGLHQLLESRKRKRPIQKVEMGTSSQNDVDMSWIPQETLNQINKASPRRLPRKRAQKRSVGSDE [SSR1] | 0.9 | 0.359 | 57.4 °C | 58.8 °C | 0.0174 | 0.474 |
| WRAP53 | -1.59 | -0.902 | 53.7 °C | 53.4 °C | -0.144 | -0.0145 |
| MSESGHSQPGLYGIERRRRWKEPGSGGPQNLSGPGGRERDYIAPWERERRDASEETSTSVMQKTPIILSKPPAERSKQPPPPTAPAAPPAPAPLEKPIVLMKPREEGKGPVAVTGASTPEGTAPPPPAAPAPPKGEKEGQRPTQPVYQIQNRGMGTAAPAAMDPVVGQAKLLPPERMKHSIKLVDDQMNWCDSAIEYLLDQTDVLVVGVLGLQGTGKSMVMSLLSANTPEEDQRTYVFRAQSAEMKERGGNQTSGIDFFITQERIVFLDTQPILSPSILDHLINNDRKLPPEYNLPHTYVEMQSLQIAAFLFTVCHVVIVVQDWFTDLSLYRFLQTAEMVKPSTPSPSHESSSSSGSDEGTEYYPHLVFLQNKARREDFCPRKLRQMHLMIDQLMAHSHLRYKGTLSMLQCNVFPGLPPDFLDSEVNLFLVPFMDSEAESENPPRAGPGSSPLFSLLPGYRGHPSFQSLVSKLRSQVMSMARPQLSHTILTEKNWFHYAARIWDGVRKSSALAEYSRLLA [SMG9] | -0.759 | -0.639 | 49 °C | 49.8 °C | -0.178 | 0.242 |
| MEALILEPSLYTVKAILILDNDGDRLFAKYYDDTYPSVKEQKAFEKNIFNKTHRTDSEIALLEGLTVVYKSSIDLYFYVIGSSYENELMLMAVLNCLFDSLSQMLRKNVEKRALLENMEGLFLAVDEIVDGGVILESDPQQVVHRVALRGEDVPLTEQTVSQVLQSAKEQIKWSLLR [COPZ1] | -1.54 | -1.52 | 52.4 °C | 53.1 °C | 0.197 | 0.235 |
| MALQVELVPTGEIIRVVHPHRPCKLALGSDGVRVTMESALTARDRVGVQDFVLLENFTSEAAFIENLRRRFRENLIYTYIGPVLVSVNPYRDLQIYSRQHMERYRGVSFYEVPPHLFAVADTVYRALRTERRDQAVMISGESGAGKTEATKRLLQFYAETCPAPERGGAVRDRLLQSNPVLEAFGNAKTLRNDNSSRFGKYMDVQFDFKGAPVGGHILSYLLEKSRVVHQNHGERNFHIFYQLLEGGEEETLRRLGLERNPQSYLYLVKGQCAKVSSINDKSDWKVVRKALTVIDFTEDEVEDLLSIVASVLHLGNIHFAANEESNAQVTTENQLKYLTRLLSVEGSTLREALTHRKIIAKGEELLSPLNLEQAAYARDALAKAVYSRTFTWLVGKINRSLASKDVESPSWRSTTVLGLLDIYGFEVFQHNSFEQFCINYCNEKLQQLFIELTLKSEQEEYEAEGIAWEPVQYFNNKIICDLVEEKFKGIISILDEECLRPGEATDLTFLEKLEDTVKHHPHFLTHKLADQRTRKSLGRGEFRLLHYAGEVTYSVTGFLDKNNDLLFRNLKETMCSSKNPIMSQCFDRSELSDKKRPETVATQFKMSLLQLVEILQSKEPAYVRCIKPNDAKQPGRFDEVLIRHQVKYLGLLENLRVRRAGFAYRRKYEAFLQRYKSLCPETWPTWAGRPQDGVAVLVRHLGYKPEEYKMGRTKIFIRFPKTLFATEDALEVRRQSLATKIQAAWRGFHWRQKFLRVKRSAICIQSWWRGTLGRRKAAKRKWAAQTIRRLIRGFVLRHAPRCPENAFFLDHVRTSFLLNLRRQLPQNVLDTSWPTPPPALREASELLRELCIKNMVWKYCRSISPEWKQQLQQKAVASEIFKGKKDNYPQSVPRLFISTRLGTDEISPRVLQALGSEPIQYAVPVVKYDRKGYKPRSRQLLLTPNAVVIVEDAKVKQRIDYANLTGISVSSLSDSLFVLHVQRADNKQKGDVVLQSDHVIETLTKTALSANRVNSININQGSITFAGGPGRDGTIDFTPGSELLITKAKNGHLAVVAPRLNSR [MYO1C] | -1.1 | 3.69 | 50.1 °C | 50.2 °C | -0.0879 | -0.972 |
| HERC1 | -0.377 | -0.404 | 51.7 °C | 51.3 °C | -0.126 | -0.169 |
| HACL1 | -1.09 | -0.922 | 56.6 °C | 56.1 °C | -0.168 | -0.0836 |
| RSBN1 | -1.37 | -1.2 |  | 53.1 °C | 0.0741 | -0.345 |
| MSDSWVPNSASGQDPGGRRRAWAELLAGRVKREKYNPERAQKLKESAVRLLRSHQDLNALLLEVEGPLCKKLSLSKVIDCDSSEAYANHSSSFIGSALQDQASRLGVPVGILSAGMVASSVGQICTAPAETSHPVLLTVEQRKKLSSLLEFAQYLLAHSMFSRLSFCQELWKIQSSLLLEAVWHLHVQGIVSLQELLESHPDMHAVGSWLFRNLCCLCEQMEASCQHADVARAMLSDFVQMFVLRGFQKNSDLRRTVEPEKMPQVTVDVLQRMLIFALDALAAGVQEESSTHKIVRCWFGVFSGHTLGSVISTDPLKRFFSHTLTQILTHSPVLKASDAVQMQREWSFARTHPLLTSLYRRLFVMLSAEELVGHLQEVLETQEVHWQRVLSFVSALVVCFPEAQQLLEDWVARLMAQAFESCQLDSMVTAFLVVRQAALEGPSAFLSYADWFKASFGSTRGYHGCSKKALVFLFTFLSELVPFESPRYLQVHILHPPLVPGKYRSLLTDYISLAKTRLADLKVSIENMGLYEDLSSAGDITEPHSQALQDVEKAIMVFEHTGNIPVTVMEASIFRRPYYVSHFLPALLTPRVLPKVPDSRVAFIESLKRADKIPPSLYSTYCQACSAAEEKPEDAALGVRAEPNSAEEPLGQLTAALGELRASMTDPSQRDVISAQVAVISERLRAVLGHNEDDSSVEISKIQLSINTPRLEPREHMAVDLLLTSFCQNLMAASSVAPPERQGPWAALFVRTMCGRVLPAVLTRLCQLLRHQGPSLSAPHVLGLAALAVHLGESRSALPEVDVGPPAPGAGLPVPALFDSLLTCRTRDSLFFCLKFCTAAISYSLCKFSSQSRDTLCSCLSPGLIKKFQFLMFRLFSEARQPLSEEDVASLSWRPLHLPSADWQRAALSLWTHRTFREVLKEEDVHLTYQDWLHLELEIQPEADALSDTERQDFHQWAIHEHFLPESSASGGCDGDLQAACTILVNALMDFHQSSRSYDHSENSDLVFGGRTGNEDIISRLQEMVADLELQQDLIVPLGHTPSQEHFLFEIFRRRLQALTSGWSVAASLQRQRELLMYKRILLRLPSSVLCGSSFQAEQPITARCEQFFHLVNSEMRNFCSHGGALTQDITAHFFRGLLNACLRSRDPSLMVDFILAKCQTKCPLILTSALVWWPSLEPVLLCRWRRHCQSPLPRELQKLQEGRQFASDFLSPEAASPAPNPDWLSAAALHFAIQQVREENIRKQLKKLDCEREELLVFLFFFSLMGLLSSHLTSNSTTDLPKAFHVCAAILECLEKRKISWLALFQLTESDLRLGRLLLRVAPDQHTRLLPFAFYSLLSYFHEDAAIREEAFLHVAVDMYLKLVQLFVAGDTSTVSPPAGRSLELKGQGNPVELITKARLFLLQLIPRCPKKSFSHVAELLADRGDCDPEVSAALQSRQQAAPDADLSQEPHLF [FANCA] | 0.523 | 1.07 | 47.9 °C | 48.3 °C | 0.00288 | -0.182 |
